The values below come from patent US20090123479A1 (published 2009).

Numbering of substitutions follows the chain as printed.

Assay [1] concerns the target T1, recombinant cynomologus IL-23 (cynomolgus, limits assumed).
T1 construct: also called cynomolgus IL-23; cyno IL23
T1 chain 1: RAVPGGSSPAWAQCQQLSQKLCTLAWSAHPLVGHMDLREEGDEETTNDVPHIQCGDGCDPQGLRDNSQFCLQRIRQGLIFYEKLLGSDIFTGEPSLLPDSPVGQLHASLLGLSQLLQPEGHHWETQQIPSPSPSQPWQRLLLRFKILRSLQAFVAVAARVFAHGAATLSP
T1 chain 2: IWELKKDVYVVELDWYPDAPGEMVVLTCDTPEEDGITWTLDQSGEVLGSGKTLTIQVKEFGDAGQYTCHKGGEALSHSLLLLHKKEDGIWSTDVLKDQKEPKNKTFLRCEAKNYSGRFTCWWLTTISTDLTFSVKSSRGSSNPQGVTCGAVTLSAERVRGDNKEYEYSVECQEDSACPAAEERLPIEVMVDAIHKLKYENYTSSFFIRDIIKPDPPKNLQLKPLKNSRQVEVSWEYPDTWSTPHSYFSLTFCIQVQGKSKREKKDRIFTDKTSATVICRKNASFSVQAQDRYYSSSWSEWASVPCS
The assay can be described thus: SPR (Biacore 3000), hybridoma supernatant mAb captured on anti-murine IgG, cynomologus IL-23 analyte, 1:1 model, 25 C. How it is done:
(§1) Anti-murine IgG was immobilised on a CM5 sensorchip using amine coupling chemistry. Anti-IL-23 hybridoma antibody sample was injected over the surface and the murine mAb captured. Subsequently recombinant human IL-23, recombinant cynomologus IL-23 or recombinant human IL-12 was flowed over the captured antibody surface at 5 different concentrations (range 0 nM-91 nM) to obtain binding sensorgrams. Regeneration of the surface after antibody and antigen injections was done by injecting 0.1 M phosphoric acid for 3 minutes. Double referencing was used on all sensorgrams with a buffer injection over the anti-murine IgG sensorchip surface. The experiment was performed at 25° C. in HBS-EP buffer. Resulting sensorgram data was analysed using the 1:1 binding model incorporated within the Biaevaluation software for the Biacore 3000 instrument. Data presented in Table 2 are from using hybridoma supernatant taken from a tissue culture flask.
For orientation: In SPR one partner is held on a chip, and binding of the other changes the refractive index at the surface.

Assay [2] deals with T2, recombinant human IL-23 (human, UniProt Q9NPF7 20-189; P29460 23-328).
T2 construct: also called hIL-23
T2 sequence 1: T1 chain 1 with A12T, R75H, P131L
T2 sequence 2: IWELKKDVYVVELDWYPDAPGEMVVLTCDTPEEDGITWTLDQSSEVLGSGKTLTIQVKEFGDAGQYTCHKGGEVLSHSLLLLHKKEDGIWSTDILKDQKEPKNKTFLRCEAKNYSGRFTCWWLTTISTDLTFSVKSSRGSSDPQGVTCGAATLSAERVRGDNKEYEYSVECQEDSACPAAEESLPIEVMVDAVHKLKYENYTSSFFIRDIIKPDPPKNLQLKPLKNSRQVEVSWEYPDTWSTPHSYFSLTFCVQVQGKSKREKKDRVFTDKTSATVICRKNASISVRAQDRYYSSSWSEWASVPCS
As to the kind of experiment: SPR (Biacore 3000), hybridoma supernatant mAb captured on anti-murine IgG, human IL-23 analyte, 1:1 model, 25 C. How it is done: as §1

For another assay, the target named is T3, Endogenous human IL-23 (human, UniProt Q9NPF7 20-189; P29460 23-328).
T3 construct: also called endogenous human IL-23 from stimulated dendritic cells
T3 sequence 1: T1 chain 1 with A12T, R75H, P131L
T3 sequence 2: T2 sequence 2
The assay can be described thus: receptor inhibition ELISA: plate coated with recombinant human IL-23 receptor, endogenous human IL-23 at 3.5 ng/ml pre-incubated with titrated purified antibody, bound IL-23 detected with biotinylated anti-human IL-12; 1% BSA. As to the method:
Recombinant human IL-23 Receptor (R&D systems 1400-IR-050) was coated onto 96 well plates at a concentration of 1 μg/ml. Endogenous human IL-23 at 3.5 ng/ml final, was pre incubated for 1 hour with a titration of purified antibody material before being added to the pre-coated plates. Detection was performed with biotinylated anti-human 1L12 (R&D systems BAF-219) followed by Streptavidin-HRP (GE Healthcare RPN 4401). This neutralisation ELISA used 1% BSA.

Assay [3] concerns the target T2, recombinant human IL-23. The assay can be described thus: sandwich ELISA (optimised protocol, OD450): plate coated with anti-human IL-12, antibody pre-incubated with constant human IL-23, bound antibody detected with anti-human IgG gamma chain HRP; purified antibody. As to the method:
Optimised assay conditions: Plates were coated with anti human IL12 at 2 μg/diluent (phosphate buffered saline). 50 μl/well of this mixture was incubated overnight at 4° C. The plates were then washed three times with Phosphate Buffered Saline with 0.05% Tween 20 (PBST). Plates were blocked with 4% skim milk powder (Fluka BioChemika #70166) PBS 200 μl/well for a minimum of 1 hour at room temperature. The plates were then washed three times with Phosphate Buffered Saline+0.05% Tween 20 (PBST). Various concentrations of antibody were incubated in a separate plate with a constant concentration of IL-23 for 1 hour at room temperature. 50 ul of each mixture were transferred to the assay plate and incubated at RT for 1 hr. They were then washed three times with Phosphate Buffered Saline+0.05% Tween 20 (PBST). […] 50 μl/well of the detection antibody was added and incubated at RT for 1 hour. The plates were then washed three times with Phosphate Buffered Saline+0.05% Tween 20 (PBST). 50 μl/well of TMB was added to the plates and incubated at RT for 10 min. 50 μl/well of 1 MH₂SO₄ was added. The plate was read at OD450 nm using the SOftmaxPRO versamax plate reader.
On the technique in general: ELISA stands for enzyme-linked immunosorbent assay.

Assay [4] deals with T1, recombinant cynomologus IL-23. As to the kind of experiment: IL-23/IL-23R inhibition ELISA (optimised protocol, OD450): plate coated with human IL23R Fc chimera, antibody pre-incubated with constant cynomolgus IL-23, bound IL-23 detected with biotinylated anti-human IL-12; purified antibody. As to the method: (§2) Optimised protocol: Plates were coated with human IL23R Fc chimera at […] (phosphate buffered saline). 50 μl/well of this mixture was incubated overnight at 4° C. The plates were then washed three times with Phosphate Buffered Saline with 0.05% Tween 20 (PBST). Plates were blocked with 4% skim milk powder (Fluka BioChemika #70166) PBST 100 μl/well for a minimum of 1 hour at room temperature. The plates were then washed three times with Phosphate Buffered Saline+0.05% Tween 20 (PBST). Various concentrations of antibody were incubated in a separate plate with a constant concentration of IL-23 for 1 hour at room temperature. 50 ul of each mixture were transferred to the assay plate and incubated at RT for 1 hr. They were then washed three times with Phosphate Buffered Saline+0.05% Tween 20 (PBST). Bound IL23 was detected by anti human 1L12 Biotin labelled Ab (R&D systems BAF219) diluted to 100 ng/ml in 4% skim milk powder (Fluka BioChemika #70166) PBST. 50 μl/well of the biotinylated antibody was added and incubated at RT for 1 hour. The plates were then washed three times with Phosphate Buffered Saline+0.05% Tween 20 (PBST). SA HRP (GE healthcare RPN4401) was diluted 1/4000 in 4% skim m ilk powder (Fluka BioChemika #70166) PBS, 50 μl/well was added to the plates. The plates were then washed three times with Phosphate Buffered Saline+0.05% Tween 20 (PBST). 50 ul/well of TMB was added to the plates and incubated at RT for 15 min. 25 μl/well of 3 MH₂SO₄ was added to the wells already containing TMB. The plate was read at OD450 nm using the SOftmaxPRO versamax plate reader.

Assay [5] has as its target T2, recombinant human IL-23. As to the kind of experiment: IL-23/IL-23R inhibition ELISA (optimised protocol, OD450): plate coated with human IL23R Fc chimera, antibody pre-incubated with constant human IL-23, bound IL-23 detected with biotinylated anti-human IL-12; purified antibody. As to the method:
as §2

Assay [6] concerns the target T2, recombinant human IL-23. As to the kind of experiment: SPR (Biacore T100), CHO supernatant antibody captured on Protein A or anti-human IgG, IL-23 analyte at 256, 64, 16, 4, 1 nM.
Assay [7] has as its target T2, recombinant human IL-23. The assay can be described thus: SPR (Biacore 3000), CHO supernatant antibody captured on Protein A or anti-human IgG, IL-23 analyte at 256, 64, 16, 4 nM.

B1: murine mAb 8C9 2H6 (antibody, V domains shown)
VH: QVQLQQSGAELARPGTSVKLSCKASGYTFTSYGITWVKQRTGQGLEWIGENYPRSGNTYYNEKFKGKATLTADKSSSTAYMELRSLTSEDSAVYFCARCEFISTVVAPYYYALDYWGQGTSVTVSS
VL: DIVLTQSPASLAVSLGQKATISCKASKKVTIFGSISALHWYQQKPGQPPKLIYNGAKLESGVSARFSDSGSQNRSPFGNQLSFTLTIDPVEADDAATYYCLQNKEVPYTFGGGTKLEIK
notes: Murine hybridoma antibody; also called mouse parental; IL-23 murine 8C92H6 mAb
Take B1: in assay [1], the Kd (commonly the free concentration of one partner at which half of the binding sites on the other are occupied at equilibrium, for simple one-to-one binding) was 3.38 nM; the koff (in general, a measure of how fast the partners let go of each other) amounted to 0.000369 s⁻¹; the kon (as a rule, the second-order rate constant of association) stood at 110000 M⁻¹ s⁻¹. In the assay with recombinant human IL-23 [2], the Kd stood at 2.99 nM, the koff was determined as 0.000301 s⁻¹ and the kon worked out at 101000 M⁻¹ s⁻¹. In addition, in the assay with Endogenous human IL-23, the “IC50 (read off the curve)” value is ~60 ng/mL.

B2: A3N1 (antibody, human IgG1, kappa, V domains shown)
VH: QVQLVQSGAEVKKPGSSVKVSCKASGYTFTSYGITWVRQAPGQGLEWMGENYPRSGNTYYNEKFKGRVTITADKSTSTAYMELSSLRSEDTAVYYCARSEFISTVVAPYYYALDYWGQGTLVTVSS
VL: DIVMTQTPLSLSVTPGQPASISCKASKKVTIFGSISALHWYLQKPGQPPQLIYNGAKLESGVSDRFSDSGSQNRSPFGNQLSFTLKISRVEAEDVGVYYCLQNKEVPYTFGGGTKVEIKR
notes: Full length chains
Regarding B2, the 50% effective concentration (EC50 (read off the curve)) (usually the concentration giving half of the maximal effect) in the assay with recombinant human IL-23 [3] was ~0.04 nM. Besides, the “IC50 (read off the curve)” value in assay [4] was ~0.9 nM. Further, the “IC50 (read off the curve)” value with recombinant human IL-23 [5] was ~1 nM. Also, in the assay with recombinant human IL-23 [6], the Kd is 4.1 nM, the koff turned out to be 0.00035 s⁻¹ and the kon was found to be 84000 M⁻¹ s⁻¹. In the assay with recombinant human IL-23 [7], the Kd stood at 2.3 nM, the koff came to 0.00039 s⁻¹ and the kon came to 170000 M⁻¹ s⁻¹.

B3: A3N2 (antibody, human IgG1, kappa, V domains shown)
VH: B2 VH
VL: DIVMTQTPLSLSVTPGQPASISCKASKKVTIFGSISALHWYLQKPGQPPQLIYNGAKLESGVSDRFSDSGSGTDFTLKISRVEAEDVGVYYCLQNKEVPYTFGGGTKVEIKR
notes: Full length chains
For B3, in the assay with recombinant human IL-23 [3], the “EC50 (read off the curve)” value was ~0.04 nM. Further, the “IC50 (read off the curve)” value in assay [4] is ~1 nM; with recombinant human IL-23 [5] it was ~0.8 nM. In addition, the Kd stood at 1.6 nM with recombinant human IL-23 [6] and 1.5 nM in the assay with recombinant human IL-23 [7]. Besides, the koff in the assay with recombinant human IL-23 [6] amounted to 0.00038 s⁻¹; in the assay with recombinant human IL-23 [7], 0.00041 s⁻¹. Further, the kon was 240000 M⁻¹ s⁻¹ in the assay with recombinant human IL-23 [6] and 280000 M⁻¹ s⁻¹ with recombinant human IL-23 [7].
